# Assay results taken from article PMC8741920.
# Legend:
# [1] = molecular target: recombinant soluble human FcRn with β2-microglobulin (sFcRn) (human) (UniProt P55899); test: SPR; pH 6.0
# [2] = molecular target: recombinant soluble human FcRn with β2-microglobulin (sFcRn) (human) (UniProt P55899); test: SPR; pH 7.4
Kd [1],Kd [2],Substance
8 nM,893 nM,anti-biotin IgG1-MST-HN (from UniProt P01857)
59.3 nM,,anti-biotin IgG1-WT (from UniProt P01857)
